Assays:
[1] = target: D3H44 light chain Q124R_Q160K_T178R, N-terminal HA or FLAG tag; assay: LCCA, SPR of light chain tags, L1:L2 DNA 1:3 norm. to 1:1; other light chain m15
[2] = target: D3H44 light chain Q124R_Q160K_T178R, N-terminal HA or FLAG tag; assay: LCCA, SPR of light chain tags, L1:L2 DNA 1:3 norm. to 1:1; other light chain m16
[3] = target: D3H44 light chain Q124E_S131T_T178Y_T180E, N-terminal HA or FLAG tag; assay: LCCA, SPR of light chain tags, L1:L2 DNA 1:3 norm. to 1:1; other light chain m17
[4] = target: D3H44 light chain Q124E_S176L_T180E, N-terminal HA or FLAG tag; assay: as above
[5] = target: D3H44 light chain Q124E_V133D_S176L, N-terminal HA or FLAG tag; assay: as above
[6] = target: D3H44 light chain Q124R, N-terminal HA or FLAG tag; assay: LCCA, SPR of light chain tags, L1:L2 DNA 1:3 norm. to 1:1; other light chain m18
[7] = target: D3H44 light chain Q124E_V133D, N-terminal HA or FLAG tag; assay: LCCA, SPR of light chain tags, L1:L2 DNA 1:3 norm. to 1:1; other light chain m24
[8] = target: D3H44 light chain Q124E_V133E, N-terminal HA or FLAG tag; assay: as above
[9] = target: D3H44 light chain Q124R_Q160K_T178R, N-terminal HA or FLAG tag; assay: LCCA, SPR of light chain tags, L1:L2 DNA 1:3 norm. to 1:1; other light chain m27
[10] = target: D3H44 light chain Q124R, N-terminal HA or FLAG tag; assay: LCCA, SPR of light chain tags, L1:L2 DNA 1:3 norm. to 1:1; other light chain m28
[11] = target: D3H44 light chain Q124E_V133D_S176L, N-terminal HA or FLAG tag; assay: LCCA, SPR of light chain tags, L1:L2 DNA 1:9 norm. to 1:1; other light chain m17
[12] = target: D3H44 light chain Q124E_V133D, N-terminal HA or FLAG tag; assay: LCCA, SPR of light chain tags, L1:L2 DNA 1:9 norm. to 1:1; other light chain m24
[13] = target: D3H44 light chain Q124R_Q160K_T178R, N-terminal HA or FLAG tag; assay: LCCA, SPR of light chain tags, L1:L2 DNA 1:9 norm. to 1:1; other light chain m27
[14] = target: D3H44 light chain Q124R, N-terminal HA or FLAG tag; assay: LCCA, SPR of light chain tags, L1:L2 DNA 1:9 norm. to 1:1; other light chain m28
[15] = target: tissue factor (TF) antigen (UniProt P13726); assay: SPR; Fab captured by anti-His, TF as analyte; LCCA set 9060
[16] = target: D3H44 Fab heavy chain L143E_K145T, C-terminal ABD2-His6 tag; assay: LCCA: heavy chain co-expressed with two light chains, SPR detection of light chain tags; L1:L2 DNA 1:3, normalized to 1:1; competing light chain m11
[17] = target: D3H44 Fab heavy chain Q179K, C-terminal ABD2-His6 tag; assay: as above
[18] = target: tissue factor (TF) antigen (UniProt P13726); assay: SPR; Fab captured by anti-His, TF as analyte; LCCA set 9116
[19] = target: tissue factor (TF) antigen (UniProt P13726); assay: SPR; Fab captured by anti-His, TF as analyte; LCCA set 9374
[20] = target: tissue factor (TF) antigen (UniProt P13726); assay: SPR; Fab captured by anti-His, TF as analyte; LCCA set 9375
[21] = target: tissue factor (TF) antigen (UniProt P13726); assay: SPR; reference wild-type D3H44 Fab; * estimated value
[22] = target: tissue factor (TF) antigen (UniProt P13726); assay: SPR, Fab captured by anti-His, TF as analyte; * estimated from Fab differing only in L chain tag
[23] = target: tissue factor (TF) antigen (UniProt P13726); assay: SPR; Fab captured by anti-His, TF as analyte; LCCA set 9824
[24] = target: D3H44 Fab heavy chain L143E_K145T_S188L, C-terminal ABD2-His6 tag; assay: LCCA: heavy chain co-expressed with two light chains, SPR detection of light chain tags; L1:L2 DNA 1:3, normalized to 1:1; competing light chain m11
[25] = target: D3H44 Fab heavy chain S186K, C-terminal ABD2-His6 tag; assay: as above
[26] = target: D3H44 light chain Q124E_S131T_T178F_T180E, N-terminal HA or FLAG tag; assay: LCCA, SPR of light chain tags, L1:L2 DNA 1:3 norm. to 1:1; other light chain m14
[27] = target: D3H44 light chain Q124E_S131T_T178Y_T180E, N-terminal HA or FLAG tag; assay: as above
[28] = target: D3H44 light chain Q124R_T178R, N-terminal HA or FLAG tag; assay: LCCA, SPR of light chain tags, L1:L2 DNA 1:3 norm. to 1:1; other light chain m15
[29] = target: D3H44 light chain Q124E_Q160E_T178E, N-terminal HA or FLAG tag; assay: LCCA, SPR of light chain tags, L1:L2 DNA 1:3 norm. to 1:1; other light chain m17
[30] = target: D3H44 light chain Q124E_T178E_T180E, N-terminal HA or FLAG tag; assay: as above
[31] = target: D3H44 light chain Q124R_T178R, N-terminal HA or FLAG tag; assay: LCCA, SPR of light chain tags, L1:L2 DNA 1:3 norm. to 1:1; other light chain m20
[32] = target: D3H44 light chain Q124R_Q160K_T178R, N-terminal HA or FLAG tag; assay: LCCA, SPR of light chain tags, L1:L2 DNA 1:3 norm. to 1:1; other light chain m21
[33] = target: D3H44 light chain Q124R_Q160K_T178R, N-terminal HA or FLAG tag; assay: LCCA, SPR of light chain tags, L1:L2 DNA 1:3 norm. to 1:1; other light chain m23
[34] = target: tissue factor (TF) antigen (UniProt P13726); assay: SPR; Fab captured by anti-His, TF as analyte; LCCA set 9104; estimated from the Fab differing only in L chain tag
[35] = target: tissue factor (TF) antigen (UniProt P13726); assay: SPR, Fab captured on anti-penta His, TF injected; * estimated value taken from a Fab differing only in the L chain tag
[36] = target: tissue factor (TF) antigen (UniProt P13726); assay: SPR; Fab captured by anti-His, TF as analyte; LCCA set 9813
[37] = target: tissue factor (TF) antigen (UniProt P13726); assay: SPR; Fab captured by anti-His, TF as analyte; LCCA set 9347
[38] = target: tissue factor (TF) antigen (UniProt P13726); assay: SPR; Fab captured by anti-His, TF as analyte; LCCA set 9746
[39] = target: tissue factor (TF) antigen (UniProt P13726); assay: SPR; Fab captured by anti-His, TF as analyte; LCCA set 10549
[40] = target: tissue factor (TF) antigen (UniProt P13726); assay: SPR; Fab captured by anti-His, TF as analyte; LCCA set 10549 (identifier in reverse orientation, assigned by Table 12)
[41] = target: tissue factor (TF) antigen (UniProt P13726); assay: SPR; Fab captured by anti-His, TF as analyte; LCCA set 9814

“D3H44 Fab heavy chain L143E_K145T_S188L, ABD2-His6 tagged” showed an H1L1:H1L2 normalized median ratio [1] of 74%, an H1L1:H1L2 normalized median scalar value ln(r1/f1) [1] of 1.03 and an H1L1:H1L2 normalized median ratio [2] of 57%. The H1L1:H1L2 normalized median scalar value ln(r1/f1) [2] was 0.28, the H1L1:H1L2 normalized median ratio [3] was 26% and the H1L1:H1L2 normalized median ratio [4] was 43%. The H1L1:H1L2 normalized median ratio [5] was 23%, the H1L1:H1L2 normalized median ratio [6] was 69% and the H1L1:H1L2 normalized median scalar value ln(r1/f1) [6] was 0.81. The H1L1:H1L2 normalized median ratio [7] was 16%, the H1L1:H1L2 normalized median ratio [8] was 31% and the H1L1:H1L2 normalized median ratio [9] was 77%. The H1L1:H1L2 normalized median scalar value ln(r1/f1) [9] was 1.22, the H1L1:H1L2 normalized median ratio [10] was 84% and the H1L1:H1L2 normalized median scalar value ln(r1/f1) [10] was 1.63. It also gave an H1L1:H1L2 normalized median ratio [11] of 24%, an H1L1:H1L2 normalized median ratio [12] of 21% and an H1L1:H1L2 normalized median ratio [13] of 76%. For the same substance, the H1L1:H1L2 normalized median scalar value ln(r1/f1) [13] was 4, the H1L1:H1L2 normalized median ratio [14] was 79% and the H1L1:H1L2 normalized median scalar value ln(r1/f1) [14] was 1.32.
In the case of “D3H44 Fab heterodimer, H A139W_L143E_K145T_Q179E / L F116A_Q124R_L135V_T178R (H1L1 Fab of LCCA set 9060)”, the Change in KD with respect to wild type (-(log(KD design) - log(KD wt))) [15] is reported as 0.04 and the Kd [15] is reported as 0.14 nM.
Work on “D3H44 light chain S131E, N-terminal HA or FLAG tag” yielded an H1L1:H1L2 normalized median ratio [16] of 53% and an H2L2:H2L1 normalized median ratio [17] of 98%.
With “D3H44 Fab heterodimer, H L124E_A139W / L F116A_V133G_L135V_S176R (H1L1 Fab of LCCA set 9116)” the Change in KD with respect to wild type (-(log(KD design) - log(KD wt))) [18] was -0.02 and the Kd [18] was 0.16 nM.
For “D3H44 Fab heterodimer, H L124R_H172T / L V133G_N137K_S174R_S176D (H1L1 Fab of LCCA sets 9374, 9375)”, the Change in KD with respect to wild type (-(log(KD design) - log(KD wt))) [19] was -0.16, the Kd [19] was 0.23 nM and the Change in KD with respect to wild type (-(log(KD design) - log(KD wt))) [20] was -0.16. It also gave a Kd [20] of 0.23 nM.
In the case of “D3H44 Fab heterodimer, heavy L124E_L143E_K145T / light Q124K_V133G_S176R_T178K”, the Change in KD of h1|1 Fab heterodimer with respect to wild type (-(log(KD design) - log(KD wt))) [21] is reported as -0.12 and the Kd [22] is reported as 0.21 nM.
“D3H44 Fab heterodimer, H Q39R_H172R_S186R / L Q38E_Q124E_Q160E_T180E (H1L1 Fab of LCCA set 9824)” was tested, and the Change in KD with respect to wild type (-(log(KD design) - log(KD wt))) [23] was 0.03 and the Kd [23] was 0.15 nM.
“D3H44 light chain Q124E_S176L_T180E, N-terminal HA or FLAG tag” showed an H1L1:H1L2 normalized median ratio [24] of 43%, an H2L2:H2L1 normalized median ratio [17] of 97% and an H2L2:H2L1 normalized median ratio [25] of 97%.
For “D3H44 Fab heavy chain Q179K, ABD2-His6 tagged”, the H2L2:H2L1 normalized median ratio [26] was 94%, the H2L2:H2L1 normalized median ratio [27] was 93% and the H2L2:H2L1 normalized median ratio [1] was 5%. The H2L2:H2L1 normalized median ratio [28] was 7%, the H2L2:H2L1 normalized median ratio [29] was 98% and the H2L2:H2L1 normalized median ratio [3] was 95%. It also gave an H2L2:H2L1 normalized median ratio [30] of 94%, an H2L2:H2L1 normalized median ratio [31] of 6% and an H2L2:H2L1 normalized median ratio [32] of 6%. It also gave an H2L2:H2L1 normalized median ratio [33] of 2%.
Substance “D3H44 Fab heterodimer, heavy L124E_L143E_K145T / light Q124K_V133G_S176R_T178R” has a Change in KD of h1|1 Fab heterodimer with respect to wild type (-(log(KD design) - log(KD wt))) [21] of -0.07 and a Kd [22] of 0.18 nM.
Work on “D3H44 Fab heterodimer, H L124E / L S131T_V133G_S176R_T178Y (H1L1 Fab of LCCA set 9104)” yielded a Change in KD with respect to wild type (-(log(KD design) - log(KD wt))) [34] of -0.01 and a Kd [34] of 0.16 nM.
For “D3H44 Fab heterodimer H L124E_L143E_K145T / L Q124K_V133G_S176R_T178K (H1L1 Fab of LCCA Set # 9298)”, the Change in KD with respect to wild type (-(log(KD design) - log(KD wt))) [35] was -0.12 and the Kd [35] was 0.21 nM.
“D3H44 Fab heterodimer, H Q39E_K145T_H172R_Q179E / L Q38R_S131K (H1L1 Fab of LCCA set 9813)” gave a Change in KD with respect to wild type (-(log(KD design) - log(KD wt))) [36] of -0.05 and a Kd [36] of 0.18 nM.
“D3H44 Fab heterodimer, H L124R_A125R_H172T / L V133G_N137K_S174R_S176D (H1L1 Fab of LCCA set 9347)” gave a Change in KD with respect to wild type (-(log(KD design) - log(KD wt))) [37] of -0.16 and a Kd [37] of 0.23 nM.
“D3H44 Fab heterodimer, H L45P_K145T_Q179E / L P44F_S131K (H1L1 Fab of LCCA sets 9746, 10549)” showed a Change in KD with respect to wild type (-(log(KD design) - log(KD wt))) [38] of -0.35, a Kd [38] of 0.35 nM and a Change in KD with respect to wild type (-(log(KD design) - log(KD wt))) [39] of -0.35. It also gave a Kd [39] of 0.35 nM, a Change in KD with respect to wild type (-(log(KD design) - log(KD wt))) [40] of -0.35 and a Kd [40] of 0.35 nM.
“D3H44 Fab heterodimer, H Q39E_K145T_Q179E / L Q38R_S131K (H1L1 Fab of LCCA set 9814)” gave a Change in KD with respect to wild type (-(log(KD design) - log(KD wt))) [41] of -0.01 and a Kd [41] of 0.16 nM.

— patent publication US11306156
